Assay results published in US5891673, “Lck binding protein” (Syntex (U.S.A.) Inc., dated 1999).

Molecular target: biotinylated GST (Schistosoma japonicum (Blood fluke), UniProt P08515 = GST, biotinylated (sites not given))
Assay: blot of GST-LckBP1 deletion mutants probed with biotinylated GST
Source text: DNA deletion fragments were obtained by PCR, and subcloned into the pGEX-2T vector (FIG. 7). The fusion proteins produced in *E. coli* were subjected to SDS-PAGE, transferred to a nitrocellulose filter, and probed with biotinylated GST or GST-Lck SH3 protein.

B1: GST-LckBP1-#8 (other)
chain: AIALYDYQGEGSDELSFDPDDIITDIEMVDEGWWRGQCRGHFGLFPANYVKLL
binding result: no binding

B2: GST-LckBP1-#4 (other)
chain: MEAPTTAYKKTTPIEAASSGARGLKAKFESLAEEKRKREEEEKAQQMARQQQERKAVVKMSREVQQPSMPVEEPAAPAQLPKKISSEVWPPAESHLPPESQPVRSRREYPVPSLPTRQSPL
binding result: no binding

B3: GST-LckBP1-#5 (other)
chain: MEAPTTAYKKTTPIEAASSGARGLKAKFESLAEEKRKREEEEKAQQMARQQQERKAVVKMSREVQQ
binding result: no binding
